Test results: paper PMC3595137 (Nature communications, 2013)

T1: HA-α-SNAP M105I (hyh mutant) (human, UniProt P54920 1-295, M105I)
T1 sequence: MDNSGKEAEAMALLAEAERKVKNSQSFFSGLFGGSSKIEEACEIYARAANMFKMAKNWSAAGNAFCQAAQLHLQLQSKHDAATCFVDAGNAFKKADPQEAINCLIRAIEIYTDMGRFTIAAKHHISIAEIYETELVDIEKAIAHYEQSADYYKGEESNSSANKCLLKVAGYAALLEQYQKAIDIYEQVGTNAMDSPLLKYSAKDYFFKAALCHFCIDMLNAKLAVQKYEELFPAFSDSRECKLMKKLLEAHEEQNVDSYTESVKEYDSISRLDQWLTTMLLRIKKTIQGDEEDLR


What was measured:
[1] = biological target: T1, HA-α-SNAP M105I (hyh mutant); test: co-IP
[2] = biological target: FLAG-tagged AMPK-γ1 (wild type) (UniProt P54619 1-331); test: pull-down
FLAG-tagged AMPK-γ1 (wild type), sequence (P54619 whole entry): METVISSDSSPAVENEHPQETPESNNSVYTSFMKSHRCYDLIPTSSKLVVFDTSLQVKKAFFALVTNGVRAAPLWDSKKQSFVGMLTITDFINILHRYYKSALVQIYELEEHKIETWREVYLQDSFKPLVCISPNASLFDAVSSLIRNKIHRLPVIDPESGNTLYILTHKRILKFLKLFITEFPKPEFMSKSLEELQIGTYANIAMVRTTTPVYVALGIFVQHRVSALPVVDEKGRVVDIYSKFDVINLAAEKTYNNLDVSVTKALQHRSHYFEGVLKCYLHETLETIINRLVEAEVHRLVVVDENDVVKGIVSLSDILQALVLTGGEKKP

Row | fold increase in co-immunoprecipitation against WT α-SNAP [1] | fold increase in binding with ATP against no nucleotide [2] | Binder
1 | ~2 fold | – | FLAG-AMPKα2 (natural protein) MAEKQKHDGRVKIGHYVLGDTLGVGTFGKVKIGEHQLTGHKVAVKILNRQKIRSLDVVGKIKREIQNLKLFRHPHIIKLYQVISTPTDFFMVMEYVSGGELFDYICKHGRVEEMEARRLFQQILSAVDYCHRHMVVHRDLKPENVLLDAHMNAKIADFGLSNMMSDGEFLRTSCGSPNYAAPEVISGRLYAGPEVDIWSCGVILYALLCGTLPFDDEHVPTLFKKIRGGVFYIPEYLNRSVATLLMHMLQVDPLKRATIKDIREHEWFKQDLPSYLFPEDPSYDANVIDDEAVKEVCEKFECTESEVMNSLYSGDPQDQLAVAYHLIIDNRRIMNQASEFYLASSPPSGSFMDDSAMHIPPGLKPHPERMPPLIADSPKARCPLDALNTTKPKSLAVKKAKWHLGIRSQSKPYDIMAEVYRAMKQLDFEWKVVNAYHLRVRRKNPVTGNYVKMSLQLYLVDNRSYLLDFKSIDDEVVEQRSGSSTPQRSCSAAGLHRPRSSFDSTTAESHSLSGSLTGSLTGSTLSSVSPRLGSHTMDFFEMCASLITTLAR
2 | – | 2 fold | purified recombinant α-SNAP (His-tagged, wild type) (natural protein) MDNSGKEAEAMALLAEAERKVKNSQSFFSGLFGGSSKIEEACEIYARAANMFKMAKNWSAAGNAFCQAAQLHLQLQSKHDAATCFVDAGNAFKKADPQEAINCLMRAIEIYTDMGRFTIAAKHHISIAEIYETELVDIEKAIAHYEQSADYYKGEESNSSANKCLLKVAGYAALLEQYQKAIDIYEQVGTNAMDSPLLKYSAKDYFFKAALCHFCIDMLNAKLAVQKYEELFPAFSDSRECKLMKKLLEAHEEQNVDSYTESVKEYDSISRLDQWLTTMLLRIKKTIQGDEEDLR
